Biological target: EPHB1 (UniProt P54762)
Assay: phosphorylation enrichment, bacterial display (enrichment ratio); higher = better substrate or ligand; peptides without Tyr show the background
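For SH2 binding enrichment of the phosphorylated peptide, bacterial display in this document: peptide library displayed on the E. coli surface as eCPX fusions, selected cells deep-sequenced, score is each peptide's frequency after selection divided by its frequency in the input.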
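For phosphorylation enrichment, bacterial display in this document: 11-residue human phosphosite peptides and single-mutation variants displayed on the E. coli surface, counted by deep sequencing, each peptide's frequency after selection divided by its frequency in the unselected input library; frequency after pTyr selection over input frequency; kinase dosed for 20-30% of maximal phosphorylation in three min.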

Sequence of EPHB1 (P54762 whole entry, looked up): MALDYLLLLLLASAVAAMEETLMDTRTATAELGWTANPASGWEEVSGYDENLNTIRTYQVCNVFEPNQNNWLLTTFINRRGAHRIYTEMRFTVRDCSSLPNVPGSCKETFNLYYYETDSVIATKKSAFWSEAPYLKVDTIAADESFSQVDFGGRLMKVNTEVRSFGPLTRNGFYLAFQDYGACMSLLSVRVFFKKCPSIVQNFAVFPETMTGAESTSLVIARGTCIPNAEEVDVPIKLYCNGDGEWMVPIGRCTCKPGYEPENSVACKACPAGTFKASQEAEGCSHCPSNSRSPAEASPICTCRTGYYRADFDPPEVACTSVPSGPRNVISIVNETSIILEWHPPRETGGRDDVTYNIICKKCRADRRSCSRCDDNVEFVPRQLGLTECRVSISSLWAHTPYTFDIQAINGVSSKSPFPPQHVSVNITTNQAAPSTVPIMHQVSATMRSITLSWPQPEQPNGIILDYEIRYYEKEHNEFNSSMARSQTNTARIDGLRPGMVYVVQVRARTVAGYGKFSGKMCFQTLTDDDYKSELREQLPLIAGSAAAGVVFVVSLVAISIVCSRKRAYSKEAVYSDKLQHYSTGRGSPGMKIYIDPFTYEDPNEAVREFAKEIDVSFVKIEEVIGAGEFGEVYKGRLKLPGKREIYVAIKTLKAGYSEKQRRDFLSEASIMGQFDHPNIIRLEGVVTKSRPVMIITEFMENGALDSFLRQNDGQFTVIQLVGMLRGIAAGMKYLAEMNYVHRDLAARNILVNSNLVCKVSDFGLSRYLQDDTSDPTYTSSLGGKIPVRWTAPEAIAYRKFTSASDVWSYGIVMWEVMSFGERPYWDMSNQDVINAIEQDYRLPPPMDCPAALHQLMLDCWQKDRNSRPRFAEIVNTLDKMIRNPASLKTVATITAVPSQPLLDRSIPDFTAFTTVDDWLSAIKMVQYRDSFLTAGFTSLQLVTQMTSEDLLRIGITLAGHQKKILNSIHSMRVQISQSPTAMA

Sequence | phosphorylation enrichment
PCNLIYFGEHP [TRPV6_Y201] | 1.17
KYGTNYRVGSS [CPO_Y278] | 0.307
RLQKLYLDRNL [IGFALS_Y248] | 1.4
DRTVNYVLKCR [PLEKHG4_Y1068] | 0.668
VDGSVYKLPPS [GCK_Y413_H416P] | 0.429
ALVFLYFCIIF [SIGLEC12_Y494] | 0.397
FSQNICIQNRN [PKP2_Y631_Y631C_YF] | 0.608
DELDKYSEALK [TPM1_Y60] | 0.469
FDDIAYIRKAL [PIK3CA_Y1021_T1025A] | 0.361
VHVEVYDPPSP | 0.749
QITQVYGFYDE [PPP2CA_Y127] | 0.716
LKGQVYILGQE [ASS1_Y359_R363Q] | 1.09
YHLGKYLQEVL [KLB_Y910_Y906H] | 0.481
SRGLAYPARSA [LEMD2_Y122_P126S] | 0.244
FLEKFYKFGCR [NNMT_Y25_S29C_YF] | 0.522
NTVDFYDLFGG [PTPN11_Y63_G60V_YF] | 0.576
GLSSAYGGLTS [KRT8_Y427] | 0.555

Sequence | phosphorylation enrichment
FGSSSYRGAGG [RPA2_Y14_G15R_YF] | 0.431
VYLGAYDHFLP [SLC22A5_Y486_R488H] | 4.38
YVSLIYTNYEA [GSTP1_Y109_I105V] | 3.04
GVMLLYFGRFN [ADGRD1_Y85_T82M_YF] | 0.529
HNQDDYSYPSR [LDLR_Y845_G844D] | 1.2
HNGDRYFKGIV [DCX_Y64_R59H] | 0.449
EVASVYQSFQP [MAVS_Y92_YF] | 0.785
RGRDSYGGPPR [RBMX_Y190] | 0.427
ARGMEYLASKN [FGFR1_Y613_K618N] | 0.285
RASSVYTRSTG [CCR5_Y339] | 0.591
DSYSSYCNAVA [SLC20A2_Y436] | 0.729
DFTEAYNPKIK [CLK1_Y305_YF] | 0.509
RIVTTYIWERE [DNM2_Y463_R465W] | 0.526
LDFNEYFRNLN [HPRT1_Y198_D201N_YF] | 0.988
PYSNPYENSLI [EPOR_Y489] | 0.781
KAWGIYDCQQP [CYP3A7_Y75_V71A] | 8.32

Biological target: Grb2 SH2 (UniProt P62993)
Sequence (P62993 whole entry, looked up): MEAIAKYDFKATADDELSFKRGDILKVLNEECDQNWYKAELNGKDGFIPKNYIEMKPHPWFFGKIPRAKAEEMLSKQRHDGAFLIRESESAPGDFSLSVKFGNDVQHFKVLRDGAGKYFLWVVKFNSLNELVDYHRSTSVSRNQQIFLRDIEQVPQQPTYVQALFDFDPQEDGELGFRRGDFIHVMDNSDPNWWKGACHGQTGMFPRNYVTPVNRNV
Assay: SH2 binding enrichment of the phosphorylated peptide, bacterial display (enrichment ratio); higher = better substrate or ligand; peptides without Tyr show the background

Sequence | SH2 binding enrichment
PCNLIYFGEHP [TRPV6_Y201] | 1.48
KYGTNYRVGSS [CPO_Y278] | 1.01
RLQKLYLDRNL [IGFALS_Y248] | 0.884
DRTVNYVLKCR [PLEKHG4_Y1068] | 0.728
VDGSVYKLPPS [GCK_Y413_H416P] | 0.744
ALVFLYFCIIF [SIGLEC12_Y494] | 1.91
FSQNICIQNRN [PKP2_Y631_Y631C_YF] | 0.733
DELDKYSEALK [TPM1_Y60] | 0.889
FDDIAYIRKAL [PIK3CA_Y1021_T1025A] | 0.787
VHVEVYDPPSP | 0.736
QITQVYGFYDE [PPP2CA_Y127] | 0.867
LKGQVYILGQE [ASS1_Y359_R363Q] | 1.17
YHLGKYLQEVL [KLB_Y910_Y906H] | 0.878
SRGLAYPARSA [LEMD2_Y122_P126S] | 0.723
FLEKFYKFGCR [NNMT_Y25_S29C_YF] | 1.11
NTVDFYDLFGG [PTPN11_Y63_G60V_YF] | 0.997
GLSSAYGGLTS [KRT8_Y427] | 0.876

Sequence | SH2 binding enrichment
FGSSSYRGAGG [RPA2_Y14_G15R_YF] | 1.01
VYLGAYDHFLP [SLC22A5_Y486_R488H] | 0.755
YVSLIYTNYEA [GSTP1_Y109_I105V] | 1.18
GVMLLYFGRFN [ADGRD1_Y85_T82M_YF] | 0.956
HNQDDYSYPSR [LDLR_Y845_G844D] | 1.29
HNGDRYFKGIV [DCX_Y64_R59H] | 0.821
EVASVYQSFQP [MAVS_Y92_YF] | 0.961
RGRDSYGGPPR [RBMX_Y190] | 1.1
ARGMEYLASKN [FGFR1_Y613_K618N] | 1.03
RASSVYTRSTG [CCR5_Y339] | 0.809
DSYSSYCNAVA [SLC20A2_Y436] | 0.796
DFTEAYNPKIK [CLK1_Y305_YF] | 0.947
RIVTTYIWERE [DNM2_Y463_R465W] | 1.16
LDFNEYFRNLN [HPRT1_Y198_D201N_YF] | 0.693
PYSNPYENSLI [EPOR_Y489] | 3.58
KAWGIYDCQQP [CYP3A7_Y75_V71A] | 0.969

— the supplement of paper PMC10065799, “High-throughput profiling of sequence recognition by tyrosine kinases and SH2 domains using bacterial peptide display” (eLife, 2023)
